PMC12416549 (2024)
Substitutions are numbered along the chain they refer to. Numbers in names are those of the source.

T1: TNFR1 (Homo sapiens, UniProt P19438)
T1 chain: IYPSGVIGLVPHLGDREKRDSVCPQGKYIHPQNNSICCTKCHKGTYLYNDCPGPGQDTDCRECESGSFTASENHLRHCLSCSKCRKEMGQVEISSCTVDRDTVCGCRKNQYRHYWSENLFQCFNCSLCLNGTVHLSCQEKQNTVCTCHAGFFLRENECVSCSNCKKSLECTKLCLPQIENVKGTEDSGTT

B1: K18D (designed binder)
chain: SMEEEVEKAAKEYEKKKDEAIEKHLEKLKAKDKEAAERFLKELEEAAKEYAKDEAKTMSEEEAKRRAKKYKEKVLLSELSEEEQKEIKEAEEKLVRTILKYVEEAAK
B2: V102G (designed binder)
chain: B1 chain with D18K, V102G
B3: E44P (designed binder)
chain: B1 chain with D18K, E44P
B4: K27W (designed binder)
chain: B1 chain with D18K, K27W
B5: T57N (designed binder)
chain: B1 chain with D18K, T57N
B6: L79F (designed binder)
chain: B1 chain with D18K, L79F
B7: S80K (designed binder)
chain: B1 chain with D18K, S80K
B8: A105C (designed binder)
chain: B1 chain with D18K, A105C
B9: E45I (designed binder)
chain: B1 chain with D18K, E45I
B10: A51S (designed binder)
chain: B1 chain with D18K, A51S
B11: A47N (designed binder)
chain: B1 chain with D18K, A47N
B12: E91G (designed binder)
chain: B1 chain with D18K, E91G
B13: E12D (designed binder)
chain: B1 chain with E12D, D18K
B14: S77V (designed binder)
chain: B1 chain with D18K, S77V
B15: E89N (designed binder)
chain: B1 chain with D18K, E89N
B16: L76P (designed binder)
chain: B1 chain with D18K, L76P
B17: R96Y (designed binder)
chain: B1 chain with D18K, R96Y
B18: A106L (designed binder)
chain: B1 chain with D18K, A106L
B19: K41G (designed binder)
chain: B1 chain with D18K, K41G
B20: R96E (designed binder)
chain: B1 chain with D18K, R96E
B21: K100E (designed binder)
chain: B1 chain with D18K, K100E
B22: K93A (designed binder)
chain: B1 chain with D18K, K93A
B23: M58P (designed binder)
chain: B1 chain with D18K, M58P
B24: L99P (designed binder)
chain: B1 chain with D18K, L99P
B25: K68S (designed binder)
chain: B1 chain with D18K, K68S
B26: L94P (designed binder)
chain: B1 chain with D18K, L94P
B27: K52A (designed binder)
chain: B1 chain with D18K, K52A
B28: R66Q (designed binder)
chain: B1 chain with D18K, R66Q
B29: M58G (designed binder)
chain: B1 chain with D18K, M58G
B30: Y50C (designed binder)
chain: B1 chain with D18K, Y50C
B31: I21E (designed binder)
chain: B1 chain with D18K, I21E
B32: K88F (designed binder)
chain: B1 chain with D18K, K88F
B33: V95N (designed binder)
chain: B1 chain with D18K, V95N
B34: S1G (designed binder)
chain: B1 chain with S1G, D18K
B35: V102A (designed binder)
chain: B1 chain with D18K, V102A
B36: K73D (designed binder)
chain: B1 chain with D18K, K73D
B37: L43A (designed binder)
chain: B1 chain with D18K, L43A
B38: E91Q (designed binder)
chain: B1 chain with D18K, E91Q
B39: E22C (designed binder)
chain: B1 chain with D18K, E22C
B40: A35N (designed binder)
chain: B1 chain with D18K, A35N

Molecular target: T1, TNFR1
Assay: yeast display SC50

Going from B1 to B2, the “apparent Kd (screen)” value falls from 0.956 nM to 0.446 nM (2.1-fold).

Going from B3 to B4, the “apparent Kd (screen)” value falls from 6.43 nM to 1.16 nM (5.5-fold).

B5 and B6 are the same in “apparent Kd (screen)” value: 2.05 nM for the first, 2.05 nM for the second.

B7 and B8 are within 1.5-fold of each other in “apparent Kd (screen)” value: 1.54 nM for the first, 1.4 nM for the second.

B9 and B10 are within 1.5-fold of each other in “apparent Kd (screen)” value: 2.73 nM for the first, 1.86 nM for the second.

Going from B11 to B12, the “apparent Kd (screen)” value rises from 1.4 nM to 9.41 nM (6.7-fold).

First: B13
Second: B14
The “apparent Kd (screen)” value of the first is 2.6-fold lower: 1.05 nM for the first, 2.73 nM for the second.

Going from B15 to B16, the “apparent Kd (screen)” value rises from 0.956 nM to 1.54 nM (1.6-fold).

First: B17
Second: B18
The “apparent Kd (screen)” value of the first is 1.8-fold higher: 3.99 nM for the first, 2.25 nM for the second.

First: B19
Second: B20
The “apparent Kd (screen)” value of the first is 5.1-fold lower: 0.869 nM for the first, 4.39 nM for the second.

Going from B21 to B22, the “apparent Kd (screen)” value falls from 1.54 nM to 0.79 nM (1.9-fold).

Compared with B23, B24 is 23-fold higher in “apparent Kd (screen)” value: 0.653 nM for the first, 15.2 nM for the second.

First: B25
Second: B26
The “apparent Kd (screen)” value of the first is 23-fold lower: 0.718 nM for the first, 16.7 nM for the second.

First: B27
Second: B28
The “apparent Kd (screen)” value of the first is 23-fold lower: 0.49 nM for the first, 11.4 nM for the second.

First: B29
Second: B30
The “apparent Kd (screen)” value of the first is 23-fold higher: 22.2 nM for the first, 0.956 nM for the second.

B31 and B32 are the same in “apparent Kd (screen)” value: 0.539 nM for the first, 0.539 nM for the second.

Compared with B33, B34 is 1.8-fold lower in “apparent Kd (screen)” value: 1.16 nM for the first, 0.653 nM for the second.

Going from B35 to B36, the “apparent Kd (screen)” value rises from 0.49 nM to 5.84 nM (12-fold).

Going from B37 to B38, the “apparent Kd (screen)” value rises from 0.49 nM to 11.4 nM (23-fold).

Going from B39 to B40, the “apparent Kd (screen)” value rises from 1.05 nM to 1.69 nM (1.6-fold).
